Source: US20140271668

Assays:
[1] = biological target: lentiviral wild type parkin (expressed in transfected neuroblastoma cells), O60260
[2] = biological target: T1, non-catalytic mutant T240R parkin (lentiviral), O60260
T1 chain: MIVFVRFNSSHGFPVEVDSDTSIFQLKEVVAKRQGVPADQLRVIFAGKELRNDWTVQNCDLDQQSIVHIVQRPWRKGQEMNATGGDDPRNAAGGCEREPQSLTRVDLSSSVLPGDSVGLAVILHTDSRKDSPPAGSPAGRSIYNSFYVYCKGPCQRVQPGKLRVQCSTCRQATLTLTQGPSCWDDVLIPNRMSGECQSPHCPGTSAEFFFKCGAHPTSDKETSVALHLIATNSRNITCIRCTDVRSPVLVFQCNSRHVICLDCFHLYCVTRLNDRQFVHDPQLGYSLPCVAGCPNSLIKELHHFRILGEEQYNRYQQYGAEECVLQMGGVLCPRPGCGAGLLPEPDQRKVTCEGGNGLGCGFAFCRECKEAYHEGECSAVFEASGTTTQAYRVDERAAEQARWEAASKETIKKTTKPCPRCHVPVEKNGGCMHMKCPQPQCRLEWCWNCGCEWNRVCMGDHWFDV

B1: lentiviral USP13 (expressed in transfected neuroblastoma cells) (protein)
chain: MQRRGALFGMPGGSGGRKMAAGDIGELLVPHMPTIRVPRSGDRVYKNECAFSYDSPNSEGGLYVCMNTFLAFGREHVERHFRKTGQSVYMHLKRHVREKVRGASGGALPKRRNSKIFLDLDTDDDLNSDDYEYEDEAKLVIFPDHYEIALPNIEELPALVTIACDAVLSSKSPYRKQDPDTWENELPVSKYANNLTQLDNGVRIPPSGWKCARCDLRENLWLNLTDGSVLCGKWFFDSSGGNGHALEHYRDMGYPLAVKLGTITPDGADVYSFQEEEPVLDPHLAKHLAHFGIDMLHMHGTENGLQDNDIKLRVSEWEVIQESGTKLKPMYGPGYTGLKNLGNSCYLSSVMQAIFSIPEFQRAYVGNLPRIFDYSPLDPTQDFNTQMTKLGHGLLSGQYSKPPVKSELIEQVMKEEHKPQQNGISPRMFKAFVSKSHPEFSSNRQQDAQEFFLHLVNLVERNRIGSENPSDVFRFLVEERIQCCQTRKVRYTERVDYLMQLPVAMEAATNKDELIAYELTRREAEANRRPLPELVRAKIPFSACLQAFSEPENVDDFWSSALQAKSAGVKTSRFASFPEYLVVQIKKFTFGLDWVPKKFDVSIDMPDLLDINHLRARGLQPGEEELPDISPPIVIPDDSKDRLMNQLIDPSDIDESSVMQLAEMGFPLEACRKAVYFTGNMGAEVAFNWIIVHMEEPDFAEPLTMPGYGGAASAGASVFGASGLDNQPPEEIVAIITSMGFQRNQAIQALRATNNNLERALDWIFSHPEFEEDSDFVIEMENNANANIISEAKPEGPRVKDGSGTYELFAFISHMGTSTMSGHYICHIKKEGRWVIYNDHKVCASERPPKDLGYMYFYRRIPS
What does the source list for B1?
parkin ubiquitination (E3LITE ubiquitin ligase ELISA with E1, UbcH7, ATP and WT ubiquitin) [1]: USP13 significantly decreased (36%) parkin ubiquitination; ubiquitinated parkin level (parkin immunoprecipitation and Western blot with anti-ubiquitin antibodies) [1]: decreased ubiquitinated parkin level when parkin was co-expressed with USP13; level of ubiquitinated proteins (parkin immunoprecipitation and Western blot with anti-ubiquitin antibodies) [2]: the level of ubiquitinated proteins when mutant T240R parkin was expressed was unaltered in the presence or absence of USP13
